# Experimental data from patent US12480163.
# B1: Wip1 (wild-type p53-induced phosphatase 1; encoded by the PPM1D gene) (protein)
# chain: MAGLYSLGVSVFSDQGGRKYMEDVTQIVVEPEPTAEEKPSPRRSLSQPLPPRPSPAALPGGEVSGKGPAVAAREARDPLPDAGASPAPSRCCRRRSSVAFFAVCDGHGGREAAQFAREHLWGFIKKQKGFTSSEPAKVCAAIRKGFLACHLAMWKKLAEWPKTMTGLPSTSGTTASVVIIRGMKMYVAHVGDSGVVLGIQDDPKDDFVRAVEVTQDHKPELPKERERIEGLGGSVMNKSGVNRVVWKRPRLTHNGPVRRSTVIDQIPFLAVARALGDLWSYDFFSGEFVVSPEPDTSVHTLDPQKHKYIILGSDGLWNMIPPQDAISMCQDQEEKKYLMGEHGQSCAKMLVNRALGRWRQRMLRADNTSAIVICISPEVDNQGNFTNEDELYLNLTDSPSYNSQETCVMTPSPCSTPPVKSLEEDPWPRVNSKDHIPALVRSNAFSENFLEVSAEIARENVQGVVIPSKDPEPLEENCAKALTLRIHDSLNNSLPIGLVPTNSTNTVMDQKNLKMSTPGQMKAQEIERTPPTNFKRTLEESNSGPLMKKHRRNGLSRSSGAQPASLPTTSQRKNSVKLTMRRRLRGQKKIGNPLLHQHRKTVCVC
# Target: p53 (tumor protein 53, TP53)
protein,measurement,value
B1,phospho-Serine15-p53 protein levels (Western blot) after combined ATSP-7041 and GSK2830371 treatment,the combination of ATSP-7041 and GSK2830371 increased the phosphorylation of p53 at Serine 15 in two Ewing sarcoma cell lines
same,phosphorylation of Serine 15 of p53 (Western blot) after GSK2830371 treatment,GSK2830371 reduced the protein levels of Wip1 in a time-dependent manner and triggered a surge in phosphorylation of Serine 15 of p53
